Here are results for one molecule from patent publication US20220064332A1 (INSERM INSTITUT NATIONAL DE LA SANT ET DE LA RECHERCHE M …, published 2022).

The target of experiment [1] is T1, 14-kDa light chain GSTcath-D (UniProt P07339 65-162, limits assumed).
T1 construct: domain: 14-kDa light chain; Produced in E. coli BL21
Description: immunoprecipitation of GST-cath-D fusion fragments.

Experiment [2] addresses T2, 4-kDa GST-cath-D pro-fragment (UniProt P07339 21-64, limits assumed).
T2 construct: domain: 4-kDa pro-fragment; Produced in E. coli BL21
T2 chain (looked up): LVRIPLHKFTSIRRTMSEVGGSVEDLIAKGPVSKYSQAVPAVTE
The experiment in a line: immunoprecipitation of GST-cath-D fusion fragments.

Experiment [3] deals with T3, human 52-kDa pro-cath-D secreted from MDA-MB-231 cells (human, UniProt P07339 21-412).
T3 construct: domain: 52-kDa pro-cath-D; Captured from conditioned medium by the M2E8 antibody in the sandwich ELISA; also called secreted human 52-kDa pro-cath-D
Description: sandwich ELISA: M2E8 capture of pro-cath-D from MDA-MB-231 conditioned medium, serial dilutions of IgG, anti-human Fc-HRP. The procedure: Cells were cultured in DMEM with 10% fetal calf serum (FCS, GibcoBRL). To produce conditioned medium, cells were grown to 90% confluence in DMEM medium with 10% FCS, and conditioned medium was centrifuged at 800×g for 10 min. For sandwich ELISA, 96-well plates were coated with M2E8 antibody in PBS (500 ng/well) at 4° C. overnight. After blocking non-specific sites with PBST/1% BSA, conditioned medium was added at 4° C. for 2 h. […] Cath-D was quantified in TNBC cytosols by sandwich ELISA, as described above, after coating with the D7E3 antibody in PBS (200 ng/well) and with the M1G8 antibody conjugated to HRP (1/80), and using recombinant pro-cath-D (1.25-15 ng/ml) for reference (6). TNBC cytosols were previously prepared and frozen (25). GST-cath-D fusion proteins were produced in the E. coli B strain BL21 as described (9).
A general note: ELISA stands for enzyme-linked immunosorbent assay.

T1 sequence (P07339 65-162 limits assumed): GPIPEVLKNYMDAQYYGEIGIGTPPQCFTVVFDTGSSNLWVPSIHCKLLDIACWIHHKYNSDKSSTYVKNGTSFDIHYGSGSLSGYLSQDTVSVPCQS

B1: anti-cath-D antibody E2 (fully human IgG1λ) (antibody, V domains shown)
VH: EVQLVESGGSLVKPGGSLRLSCAASGFTFSNSYMNWVRQAPGKGLEWISYISGSSRYISYADFVKGRFTISRDNATNSLYLQMNSLRAEDTAVYYCVRSSNSYFGGGMDVWGRGTLVTVSS
VL: QSVLTQPASVSGSPGQSITISCAGTSSDVGGSYGVSWYQQHPGKAPKLMIYGDSYRPSGVSNRFSGSKSGNTASLTISGLQAEDEADYYCSSYTNYSTRVFGGGTKLAVL
For B1, the binding result in experiment [1] and in experiment [2] was “no binding” throughout. Moreover, the EC50 (as a rule, the midpoint of the concentration-response curve) in experiment [3] came to 1.2 nM.
